# Reference: patent US8445635B2, “Modified H2 relaxin for tumor suppression” (Armour Therapeutics Inc., priority 2006, dated 2013)
# T1: LGR7 (Homo sapiens, UniProt Q9HBX9)
# T1 construct: expressed in transfected cells; host or cells: 293T-LGR7 (293T human embryonic kidney cells)
# T1 sequence (Q9HBX9 1-757): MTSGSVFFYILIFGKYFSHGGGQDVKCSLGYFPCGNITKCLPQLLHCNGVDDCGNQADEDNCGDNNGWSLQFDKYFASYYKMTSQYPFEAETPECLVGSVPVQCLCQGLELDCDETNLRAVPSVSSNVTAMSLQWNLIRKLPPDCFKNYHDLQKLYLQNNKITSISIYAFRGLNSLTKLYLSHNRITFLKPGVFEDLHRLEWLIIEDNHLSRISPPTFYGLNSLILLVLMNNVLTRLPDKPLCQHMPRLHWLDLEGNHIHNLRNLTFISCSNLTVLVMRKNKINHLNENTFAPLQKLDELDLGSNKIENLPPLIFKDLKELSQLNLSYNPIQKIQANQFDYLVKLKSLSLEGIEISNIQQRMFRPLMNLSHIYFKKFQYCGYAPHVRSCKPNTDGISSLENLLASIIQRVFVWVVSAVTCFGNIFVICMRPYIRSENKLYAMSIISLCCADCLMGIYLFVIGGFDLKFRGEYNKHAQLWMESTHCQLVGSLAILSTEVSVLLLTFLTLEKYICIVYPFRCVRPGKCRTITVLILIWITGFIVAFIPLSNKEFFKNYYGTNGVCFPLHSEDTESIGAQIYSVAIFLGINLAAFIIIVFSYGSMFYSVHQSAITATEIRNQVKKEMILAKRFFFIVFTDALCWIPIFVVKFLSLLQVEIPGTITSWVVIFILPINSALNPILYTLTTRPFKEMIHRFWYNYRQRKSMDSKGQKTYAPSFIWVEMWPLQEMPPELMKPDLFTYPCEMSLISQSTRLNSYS
# T2: relaxin receptors on THP-1 cells (Homo sapiens, UniProt Q9HBX9)
# T2 sequence (Q9HBX9 1-757): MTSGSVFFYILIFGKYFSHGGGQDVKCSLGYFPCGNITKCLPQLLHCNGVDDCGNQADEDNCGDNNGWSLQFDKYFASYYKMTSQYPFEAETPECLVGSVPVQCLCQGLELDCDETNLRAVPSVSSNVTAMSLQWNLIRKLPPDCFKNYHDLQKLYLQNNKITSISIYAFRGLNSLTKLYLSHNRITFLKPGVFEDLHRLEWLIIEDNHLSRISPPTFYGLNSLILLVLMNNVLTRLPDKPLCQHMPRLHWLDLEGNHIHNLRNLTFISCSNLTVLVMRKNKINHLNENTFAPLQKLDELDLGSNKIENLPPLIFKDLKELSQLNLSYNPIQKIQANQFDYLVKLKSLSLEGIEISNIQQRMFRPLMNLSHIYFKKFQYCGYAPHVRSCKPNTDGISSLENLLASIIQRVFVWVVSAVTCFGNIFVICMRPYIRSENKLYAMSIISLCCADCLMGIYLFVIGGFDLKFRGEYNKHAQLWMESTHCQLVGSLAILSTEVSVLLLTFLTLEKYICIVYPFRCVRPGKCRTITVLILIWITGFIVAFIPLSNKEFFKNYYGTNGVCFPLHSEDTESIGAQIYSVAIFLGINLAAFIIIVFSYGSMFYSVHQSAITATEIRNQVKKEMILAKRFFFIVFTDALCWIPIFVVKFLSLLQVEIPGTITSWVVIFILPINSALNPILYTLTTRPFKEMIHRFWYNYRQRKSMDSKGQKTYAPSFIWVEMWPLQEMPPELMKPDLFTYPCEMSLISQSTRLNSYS
# B1: ΔH2: H2 relaxin with lysine substitution at B13 and B17 of the receptor binding domain, B20 Ile (protein, UniProt P04090 1-185, looked up, variant R13K R17K)
# chain: MPRLFFFHLLGVCLLLNQFSRAVADSWMEEVIKLCGKELVKAQIAICGMSTWSKRSLSQEDAPQTPRPVAEIVPSFINKDTETINMMSEFVANLPQELKLTLSEMQPALPQLQQHVPVLKDSSLLFEEFKKLIRNRQSEAADSSPSELKYLGLDTHSRKKRQLYSALANKCCHVGCTKRSLARFC
# modifications: B-chain numbering
# How the values were obtained:
# LGR7 = biological target: T1, LGR7; assay: Flow cytometry-based relaxin binding assay on 293T-LGR7 cells, competed with bH2; settings: unconcentrated CM, WT H2 1 and 4 ng/mL, ΔH2 1 ng/mL, competed with 5 ng bH2
# Experimental: To optimize collection of recombinant ΔH2 peptide for this assay, single-cell clones of LV-infected 293T cell cultures were isolated. Clones were confirmed by flow cytometry measuring eGFP fluorescence and selected based on highest expression. 293T-eGFP#3, 293TΔH2/eGFP#6, 293T-H2/eGFP#3 cell cultures were seeded in 15-cam plates in complete medium overnight, refreshed with Dulbecco's Modified Eagle Medium (DMEM) medium containing 2% FCS after 24 h, and incubated for an additional 48 h. At this point, CM were collected for assays. H2 relaxin levels in unconcentrated CM from 293T-eGFP#3, 293TΔH2/eGFP#6, 293T-H2/eGFP#3 cell cultures were approximated by the H2 ELISA to be 0, 1, and 4 ng/mL (data not shown).
# 293T-LGR7 cells were collected, washed with PBS supplemented with 1% FCS (PBS-1%), and resuspended at 1.67×10^7 cells/mL. For each sample, 30 μl (0.5×10^6 […]) were added per 5 mL polystyrene round-bottom Falcon tube (Becton Dickinson Labware, Franklin Lakes, N.J., USA). Control samples contained 50 μL of either PBS-1% containing 5 ng of rH2 or 50 μL of PBS-1% alone. […] Samples were incubated for 15 min at RT. […] Cells were washed twice with 500 μL of PBA-1% and analyzed on a FACSCalibur flow cytometer) BDBiosciences, Franklin Lakes, N. J., USA).
# [1] = Plasma osmolality of PC3-Luc tumor-bearing mice at week 11; assay type: in vivo, mouse; settings: week 11, P=0.04
# Experimental: To determine whether H2 and ΔH2 relaxins secreted from the PC3-Luc tumor xenografts elicited a systemic physiological response, plasma osmolality was measured from the animals at the termination of the study (FIG. 4D). Plasma osmolality readings obtained from PC3-H2/eGFP, PC3-Luc-eGFP and PC3-Luc-ΔH2/eGFP animals averaged 330±4.6 […] and 342±4.6 mmol/L, respectively. […] Overexpression of ΔH2 relaxin in the tumor microenvironment may inhibit endogenous H2 relaxin progrowth signals to tumor cells or tumor-infiltrated ECs.
# Six-to-eight week old male NOD/SCID mice (The Jackson Laboratory; Bar Harbour, Me.) wore maintained at the Animal Resource Facility (PMH, Toronto, Canada) under an approved UHN protocol. […] Tumors were measured weekly by calipers and tumor volume approximated (l×w×d), as described previously (Silvertown, J. D., Ng, J., Sato, T., Summerlee, A. J., Medin, J. A. 2006. H2 relaxl; overexpression increases in vivo prostate xenograft tumor growth and angiogenesis. Iift J Cancer. 118:62-73). […] For plasma osmolality readings, approximately 100-200 μL of blood was collected in heparin (heparin sodium, 1000 USP units/mL; Hepalean) and sent for analysis (Animal Health Laboratory, Department of Pathobiology, University of Guelph).
# relaxin receptor = settings: Bullesbach 1992; cited from earlier work
# [2] = biological target: T2, relaxin receptors on THP-1 cells; assay: THP-1 cAMP bioassay; settings: THP-1 and PC3-Luc cell cultures
# Excerpt: To confirm the biological activity of the H2 and ΔH2 relaxins, the cAMP Biotrak E1A System was employed (Amersham Biosciences) as described before (Parsell, D. A., Mak, J. Y., Amento, E P., Unemori, E. N. 1996. Relaxin binds to and elicits a response from cells of the human monocytic cell line, THP-1. J Biol Chem. 271:27936-41; Silvertown, J. D., Geddes, B. J., Summerlee, A. J. 2003. Adenovirus mediated expression of human prorelaxin promotes the invasive potential of canine mammary cancer cells. Endocrinology. 144:3683-91). For measuring bioactivity from CM, 40 μL from each concentrated CM sample was added to THP-1 cells. For measuring cAMP levels directly from the LV-infected PC3-Luc cells, 1×10^5 cells were seeded in a 96-well plate and equilibrated for 2 h before cAMP was measured as described (Parsell, D. A., Mak, J. Y., Amento, E P., Unemori, E. N. 1996. Relaxin binds to and elicits a response from cells of the human monocytic cell line, THP-1. J Biol Chem. 271:27936-41; Silvertown, J. D., Geddes, B. J., Summerlee, A. J. 2003. Adenovirus-mediated expression of human prorelaxin promotes the invasive potential of canine mammary cancer cells. Endocrinology. 144:3683-91). The THP-1 cAMP assay was also adapted for an H2 relaxin competitive assay. […]
molecule,measurement,setting,value
B1,receptor affinity,LGR7,low
same,plasma osmolality increase compared to wild-type H2-expressing tumor animals,[1],approximately 12 mmol/L
same,biological activity,relaxin receptor,biologically inactive
same,lower affinity for receptor binding than wild type H2 relaxin,relaxin receptor,~2200 fold
same,Bioactivity by cAMP assays,[2],significantly impaired
